Data on 1 substance can be found in patent US20070093415A1.

Test [1] concerns the target Aβ1-40 amyloid (amyloid form of the Aβ1-40 peptide). The test can be described thus: ELISA on immobilized Aβ1-40 amyloid, anti-Thio detection.
The target is the same in test [2]. The test is described as above. The source holds these as a separate data set.

Read-outs that look alike come from different tables or passages of the source.

Sequence of Thio (recombinant thioredoxin without the Aβ-peptide binding sequence) (P0AA25 2-109): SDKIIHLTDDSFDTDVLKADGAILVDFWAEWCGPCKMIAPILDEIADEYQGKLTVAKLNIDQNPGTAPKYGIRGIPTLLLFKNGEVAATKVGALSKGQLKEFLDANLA

Consider “Thio (recombinant thioredoxin without the Aβ-peptide binding sequence) (from UniProt P0AA25 2-109)”, for which the concentration below which no binding was seen in test [1] is greater than 200 µM; in test [2], greater than 100 µM.
